What was measured:
trypsin [1] = test: TRF ELISA, Fab on biotinylated trypsin
trypsin [2] = test: phage TRF ELISA; GlyAla (Pro3Gly, Arg4Ala) mutant against the clone
trypsin [3] = test: monoclonal phage TRF ELISA

Row | TRF signal for 0.6 ug/mL Fab (trypsin [1]) | TRF signal for 2.4 ug/mL Fab (trypsin [1]) | TRF signal for 10 ug/mL Fab (trypsin [1]) | % reduction in binding signal (trypsin [2]) [%] | trypsin binding signal (FU) (trypsin [3]) | Binder
1 | 54800 | 153000 | 257000 | – | – | KB_B01 Fab (Fab, V domains shown) VH: EVQLVESGGGLVRPGGSLRLSCAASGFTFSSYAMSWVRQAPGKGLEWVSAISGSGGSTYYADSVKGRFTISRDNTKNSLYLQMTSLRADDTAFYYCVKDFGPGYGTGWFDYWGPGTLVTVSS VL: AVNWYQQLPGKAPKLLIYAAAGCPRILMRCKQDSDCLAGCVCGPNGFCGTRSGVSDRFSGSKSGTSASLAISGLRSEDEADYYCAAWDDSLRAYVFGTGTKLTVLG
2 | – | – | – | 100 | 121000 | KB_A05 (scFv, V domains shown) VH: EVQLVESGGGLVRPGGSLRLSCAASGFTFSSYAMSWVRQAPGKGLEWVSAISGSGGSTYYADSVKGRFTISRDNTKNSLYLQMTSLRADDTAFYYCVKDFGPGYGTGWFDYWGPGTLVTVSS VL: AVNWYQQLPGKAPKLLIYAADKCPRILMRCKQDSDCLAGCVCGPNGFCGGGSGIPERFSGSKSGTSASLAISGLRSEDEADYYCATWDDNLNGVVFGGGTKLTVLG
3 | 41700 | 146000 | 238000 | – | – | KB_C10 Fab (Fab, V domains shown) VH: EVQLVESGGGLVRPGGSLRLSCAASGFTFSSYAMSWVRQAPGKGLEWVSAISGSGGSTYYADSVKGRFTISRDNTKNSLYLQMTSLRADDTAFYYCVKDFGPGYGTGWFDYWGPGTLVTVSS VL: AVNWYQQLPGKAPKLLIYAAGPCPRILMRCKQDSDCLAGCVCGPNGFCGADSGVSDRFSGSKSGTSASLAITGLQAEDEGDYYCAAWDDSLNGLVFGGGTKVTVLG
4 | 51100 | 131000 | 183000 | – | – | KB_C08 Fab (Fab, V domains shown) VH: EVQLVESGGGLVRPGGSLRLSCAASGFTFSSYAMSWVRQAPGKGLEWVSAISGSGGSTYYADSVKGRFTISRDNTKNSLYLQMTSLRADDTAFYYCVKDFGPGYGTGWFDYWGPGTLVTVSS VL: AVNWYQQLPGKAPKLLIYAAAVCPRILMRCKQDSDCLAGCVCGPNGFCGTRSGIPERFSGSKSGTSAFLAISGLRSEDEADYYCAAWDDSLSGVVFGGGTKLTVLG
5 | – | – | – | 100 | 57700 | KB_A09 (scFv, V domains shown) VH: EVQLVESGGGLVRPGGSLRLSCAASGFTFSSYAMSWVRQAPGKGLEWVSAISGSGGSTYYADSVKGRFTISRDNTKNSLYLQMTSLRADDTAFYYCVKDFGPGYGTGWFDYWGPGTLVTVSS VL: AVNWYQQLPGKAPKLLIYAAERCPRILMRCKQDSDCLAGCVCGPNGFCGTPSGVPDRFSGSIDTFSNSASLTISGLKTEDEADYYCQSYDSSHHWVFGGGTKLTVLG
6 | 2340 | 15900 | 56600 | – | – | KB_B02 Fab (Fab, V domains shown) VH: EVQLVESGGGLVRPGGSLRLSCAASGFTFSSYAMSWVRQAPGKGLEWVSAISGSGGSTYYADSVKGRFTISRDNTKNSLYLQMTSLRADDTAFYYCVKDFGPGYGTGWFDYWGPGTLVTVSS VL: AVNWYQQLPGKAPKLLIYAAVGCPRILMRCKQDSDCLAGCVCGPNGFCGTGSGIPERFSGSKSGNTASLTISGLQAEDEGDYYCAAWDDSLSGPVFGGGTKLTVLG
7 | – | – | – | 93 | 20200 | KB_A01 (scFv, V domains shown) VH: EVQLVESGGGLVRPGGSLRLSCAASGFTFSSYAMSWVRQAPGKGLEWVSAISGSGGSTYYADSVKGRFTISRDNTKNSLYLQMTSLRADDTAFYYCVKDFGPGYGTGWFDYWGPGTLVTVSS VL: YLNWYQQKPGKAPKLLIYAAEVCPRILMRCKQDSDCLAGCVCGPNGFCGGTSGVPSRFSGSRSGTEFTLTISSLQPEDFATYYCQKVDDYPLTFGGGTKVEIKR
8 | 153000 | 247000 | 276000 | – | – | KB_C07 Fab (Fab, V domains shown) VH: EVQLVESGGGLVRPGGSLRLSCAASGFTFSSYAMSWVRQAPGKGLEWVSAISGSGGSTYYADSVKGRFTISRDNTKNSLYLQMTSLRADDTAFYYCVKDFGPGYGTGWFDYWGPGTLVTVSS VL: AVNWYQQLPGKAPKLLIYAAVGCPRILMRCKQDSDCLAGCVCGPNGFCGSASGVSDRFSGSKSGTSASLAISGLRSEDEADYYCASWDDSLRGYVFGTGTKVTVLG
9 | – | – | – | 98 | 116000 | KB_B02 (scFv, V domains shown) VH: EVQLVESGGGLVRPGGSLRLSCAASGFTFSSYAMSWVRQAPGKGLEWVSAISGSGGSTYYADSVKGRFTISRDNTKNSLYLQMTSLRADDTAFYYCVKDFGPGYGTGWFDYWGPGTLVTVSS VL: AVNWYQQLPGKAPKLLIYAAVGCPRILMRCKQDSDCLAGCVCGPNGFCGTGSGIPERFSGSKSGNTASLTISGLQAEDEGDYYCAAWDDSLSGPVFGGGTKLTVLG
10 | – | – | – | 96 | 183000 | KB_A02 (scFv, V domains shown) VH: EVQLVESGGGLVRPGGSLRLSCAASGFTFSSYAMSWVRQAPGKGLEWVSAISGSGGSTYYADSVKGRFTISRDNTKNSLYLQMTSLRADDTAFYYCVKDFGPGYGTGWFDYWGPGTLVTVSS VL: AVNWYQQLPGKAPKLLIYAAAKCPRILMRCKQDSDCLAGCVCGPNGFCGGASGVSDRFSGSIDSSSNSASLTISGLKPEDEGDYYCQSYDSSNRWVFGGGTKVTVLG
11 | 46800 | 205000 | 289000 | – | – | KB_C09 Fab (Fab, V domains shown) VH: EVQLVESGGGLVRPGGSLRLSCAASGFTFSSYAMSWVRQAPGKGLEWVSAISGSGGSTYYADSVKGRFTISRDNTKNSLYLQMTSLRADDTAFYYCVKDFGPGYGTGWFDYWGPGTLVTVSS VL: AVNWYQQLPGKAPKLLIYAAGRCPRILMRCKQDSDCLAGCVCGPNGFCGGGSGVPDRFSGSIDSSSNSASLTISGLRAEDEADYYCQSYDSSNHWVFGGGTKLTVLG
12 | – | – | – | 90 | 28700 | KB_A03 (scFv, V domains shown) VH: EVQLVESGGGLVRPGGSLRLSCAASGFTFSSYAMSWVRQAPGKGLEWVSAISGSGGSTYYADSVKGRFTISRDNTKNSLYLQMTSLRADDTAFYYCVKDFGPGYGTGWFDYWGPGTLVTVSS VL: AVNWYQQLPGKAPKLLINAADRCPRILMRCKQDSDCLAGCVCGPNGFCGTNSGVPDRFSGSSSGNTASLTITGAQAEDEADYYCNSRDSSGNNWVFGGGTKVTVLG
13 | – | – | – | 100 | 16400 | KB_A11 (scFv, V domains shown) VH: EVQLVESGGGLVRPGGSLRLSCAASGFTFSSYAMSWVRQAPGKGLEWVSAISGSGGSTYYADSVKGRFTISRDNTKNSLYLQMTSLRADDTAFYYCVKDFGPGYGTGWFDYWGPGTLVTVSS VL: YLNWYQQKPGKAPKLLIYAAEICPRILMRCKQDSDCLAGCVCGPNGFCGPSSGIPARFSGSGYGTDFTLTINNIESEDAAYYFCLQHDNFPYTFGQGTKVEIKR
14 | – | – | – | 100 | 89400 | KB_C09 (scFv, V domains shown) VH: EVQLVESGGGLVRPGGSLRLSCAASGFTFSSYAMSWVRQAPGKGLEWVSAISGSGGSTYYADSVKGRFTISRDNTKNSLYLQMTSLRADDTAFYYCVKDFGPGYGTGWFDYWGPGTLVTVSS VL: AVNWYQQLPGKAPKLLIYAAGRCPRILMRCKQDSDCLAGCVCGPNGFCGGGSGVPDRFSGSIDSSSNSASLTISGLRAEDEADYYCQSYDSSNHWVFGGGTKLTVLG
15 | – | – | – | 100 | 43300 | KB_C07 (scFv, V domains shown) VH: EVQLVESGGGLVRPGGSLRLSCAASGFTFSSYAMSWVRQAPGKGLEWVSAISGSGGSTYYADSVKGRFTISRDNTKNSLYLQMTSLRADDTAFYYCVKDFGPGYGTGWFDYWGPGTLVTVSS VL: AVNWYQQLPGKAPKLLIYAAVGCPRILMRCKQDSDCLAGCVCGPNGFCGSASGVSDRFSGSKSGTSASLAISGLRSEDEADYYCASWDDSLRGYVFGTGTKVTVLG
16 | – | – | – | 100 | 38800 | KB_A10 (scFv, V domains shown) VH: EVQLVESGGGLVRPGGSLRLSCAASGFTFSSYAMSWVRQAPGKGLEWVSAISGSGGSTYYADSVKGRFTISRDNTKNSLYLQMTSLRADDTAFYYCVKDFGPGYGTGWFDYWGPGTLVTVSS VL: AVNWYQQLPGKAPKLLIYAAGGCPRILMRCKQDSDCLAGCVCGPNGFCGSNSGVPDRFSGSKSGNTASLTISGLQSEDEADYYCAAWDDSLSGVVFGGGTQLTVLG
17 | – | – | – | 100 | 24400 | KB_A06 (scFv, V domains shown) VH: EVQLVESGGGLVRPGGSLRLSCAASGFTFSSYAMSWVRQAPGKGLEWVSAISGSGGSTYYADSVKGRFTISRDNTKNSLYLQMTSLRADDTAFYYCVKDFGPGYGTGWFDYWGPGTLVTVSS VL: AVNWYQQLPGKAPKLLIYAAVRCPRILMRCKQDSDCLAGCVCGPNGFCGTPSGIPERFSGSIDRSTNSASLTISGLKTEDEADYYCQSYDSSNLNWVFGGGTKLTVLG
18 | – | – | – | 95 | 57700 | KB_B01 (scFv, V domains shown) VH: EVQLVESGGGLVRPGGSLRLSCAASGFTFSSYAMSWVRQAPGKGLEWVSAISGSGGSTYYADSVKGRFTISRDNTKNSLYLQMTSLRADDTAFYYCVKDFGPGYGTGWFDYWGPGTLVTVSS VL: AVNWYQQLPGKAPKLLIYAAAGCPRILMRCKQDSDCLAGCVCGPNGFCGTRSGVSDRFSGSKSGTSASLAISGLRSEDEADYYCAAWDDSLRAYVFGTGTKLTVLG
19 | – | – | – | 100 | 76800 | KB_C08 (scFv, V domains shown) VH: EVQLVESGGGLVRPGGSLRLSCAASGFTFSSYAMSWVRQAPGKGLEWVSAISGSGGSTYYADSVKGRFTISRDNTKNSLYLQMTSLRADDTAFYYCVKDFGPGYGTGWFDYWGPGTLVTVSS VL: AVNWYQQLPGKAPKLLIYAAAVCPRILMRCKQDSDCLAGCVCGPNGFCGTRSGIPERFSGSKSGTSAFLAISGLRSEDEADYYCAAWDDSLSGVVFGGGTKLTVLG
